Measured values published in article PMC9961634.

Experiments:
[1] = target: Beta vulgaris ssp. vulgaris phytoglobin type 1.2 (BvPgb1.2) (Beta vulgaris spp. vulgaris); assay: SEC; analytical size exclusion chromatography of the purified protein samples; conditions not given (ref. 23)
[2] = target: Beta vulgaris ssp. vulgaris phytoglobin type 1.2 (BvPgb1.2) (Beta vulgaris spp. vulgaris); assay: NMR 15N relaxation (rotational correlation time from R2/R1, ROTDIF, compared with HYDRONMR values for monomeric and dimeric structures); CN-bound BvPgb1.2, 1 mM protein in 50 mM MOPS pH 7.4, 8% D2O, 298 K, 14.1 T; monomer to dimer
Hb1 (Oryza sativa) = Hb1 (Oryza sativa) (UniProt O04986); details: cited from earlier work

Question: For “Beta vulgaris ssp. vulgaris phytoglobin type 1.2 (BvPgb1.2) (natural protein)”, which stoichiometry N [1] is on record?
Answer: The stoichiometry N was 2.

Question: What about the stoichiometry N [2] of the same substance?
Answer: The stoichiometry N was 2.

Question: Which Kd (Hb1 (Oryza sativa)) does the source give for Hb1 (from UniProt O04986) here?
Answer: The Kd was 86 µM.
